{"source": "paper PMC3438722", "about": "“DNA Binding in High Salt: Analysing the Salt Dependence of Replication Protein A3 from the Halophile Haloferax volcanii” (Archaea, 2012)", "key": {"[1]": {"target": "T1, HvRPA3 CTD-1 (Haloferax volcanii DS2 (wild-type), UniProt D4GZS1 164-311)", "T1 sequence": "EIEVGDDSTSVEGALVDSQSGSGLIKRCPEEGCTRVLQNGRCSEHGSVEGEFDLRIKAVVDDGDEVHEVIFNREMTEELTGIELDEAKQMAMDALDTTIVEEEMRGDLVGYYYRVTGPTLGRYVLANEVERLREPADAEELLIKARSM", "test": "analytical SEC; any KCl condition (0.2, 1, 3 M); data not shown; FA: 50 mM HEPES pH 7.0, 10% glycerol, 0.03% BSA, 20 nM Cy5-oligo, 0.2, 1 or 3 M KCl, room temperature 10 min; SEC: 50 mM HEPES pH 7.0, 0.2, 1 or 3 M KCl; EMSA:", "details": "protein: recombinant; tags: N-terminal 6xHis; chain copies: 4; single strand"}, "[2]": {"target": "T2, HvRPA3 CTD-2 (Haloferax volcanii DS2 (wild-type), UniProt D4GZS1 164-311)", "T2 sequence": "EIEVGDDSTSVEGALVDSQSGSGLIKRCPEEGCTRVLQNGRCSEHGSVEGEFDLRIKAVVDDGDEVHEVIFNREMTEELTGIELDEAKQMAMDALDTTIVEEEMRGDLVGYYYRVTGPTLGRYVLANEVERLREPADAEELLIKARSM", "test": "analytical SEC; any KCl condition (0.2, 1, 3 M); data not shown; FA: 50 mM HEPES pH 7.0, 10% glycerol, 0.03% BSA, 20 nM Cy5-oligo, 0.2, 1 or 3 M KCl, room temperature 10 min; SEC: 50 mM HEPES pH 7.0, 0.2, 1 or 3 M KCl; EMSA:", "details": "protein: recombinant; tags: N-terminal 6xHis; single strand"}, "[3]": {"target": "the molecule itself", "test": "SEC; last step of the purification, 26/60 Superdex 200, 50 mM Hepes pH 7.0, 1.0 M NaCl"}, "[4]": {"target": "the molecule itself", "test": "SEC; analytical, 10/300 Superdex 200, 50 mM HEPES pH 7.0, 0.2 M KCl; 250 ug protein incubated one hour in the buffer; calibrated with gel filtration standards"}, "[5]": {"target": "the molecule itself", "test": "SEC; analytical, 10/300 Superdex 200, 50 mM HEPES pH 7.0, 1.0 M KCl; 250 ug protein incubated one hour in the buffer; calibrated with gel filtration standards"}, "[6]": {"target": "the molecule itself", "test": "SEC; analytical, 10/300 Superdex 200, 50 mM HEPES pH 7.0, 1.0 M KCl, with equimolar (monomer equivalent) 18mer ssDNA"}, "[7]": {"target": "T3, HvRPA3 full length (Haloferax volcanii DS2 (wild-type), UniProt D4GZS1 1-311)", "T3 sequence": "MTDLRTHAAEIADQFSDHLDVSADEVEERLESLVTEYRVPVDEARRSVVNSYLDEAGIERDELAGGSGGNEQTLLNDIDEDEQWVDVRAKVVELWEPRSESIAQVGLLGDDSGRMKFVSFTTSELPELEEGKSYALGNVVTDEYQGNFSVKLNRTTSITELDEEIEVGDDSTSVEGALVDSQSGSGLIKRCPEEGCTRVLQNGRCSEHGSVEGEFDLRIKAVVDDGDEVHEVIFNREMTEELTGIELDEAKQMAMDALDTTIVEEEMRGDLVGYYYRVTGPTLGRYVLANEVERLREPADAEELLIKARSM", "test": "fluorescence anisotropy; 3 M KCl; Hill 1.2 ± 0.1; FA: 50 mM HEPES pH 7.0, 10% glycerol, 0.03% BSA, 20 nM Cy5-oligo, 0.2, 1 or 3 M KCl, room temperature 10 min; SEC: 50 mM HEPES pH 7.0, 0.2, 1 or 3 M KCl; EMSA:", "details": "protein: recombinant; tags: N-terminal 6xHis; label: 5' Cy5; single strand"}, "[8]": {"target": "T3, HvRPA3 full length", "test": "fluorescence anisotropy; 1 M KCl; Hill 0.9 ± 0.1; monomer equivalents; FA: 50 mM HEPES pH 7.0, 10% glycerol, 0.03% BSA, 20 nM Cy5-oligo, 0.2, 1 or 3 M KCl, room temperature 10 min; SEC: 50 mM HEPES pH 7.0, 0.2, 1 or 3 M KCl; EMSA:", "details": "protein: recombinant; tags: N-terminal 6xHis; label: 5' Cy5; single strand"}, "[9]": {"target": "T4, HvRPA3-NTD (OB-fold) (Haloferax volcanii DS2 (wild-type), UniProt D4GZS1 1-163)", "T4 sequence": "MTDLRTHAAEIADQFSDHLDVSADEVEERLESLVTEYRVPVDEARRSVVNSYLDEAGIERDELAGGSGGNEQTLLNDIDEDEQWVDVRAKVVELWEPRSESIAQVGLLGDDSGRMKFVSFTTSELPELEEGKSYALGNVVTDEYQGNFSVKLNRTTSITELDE", "test": "fluorescence anisotropy; 1 M KCl; two-site fit, high-affinity site; dimer concentration; FA: 50 mM HEPES pH 7.0, 10% glycerol, 0.03% BSA, 20 nM Cy5-oligo, 0.2, 1 or 3 M KCl, room temperature 10 min; SEC: 50 mM HEPES pH 7.0, 0.2, 1 or 3 M KCl; EMSA:", "details": "protein: recombinant; tags: N-terminal 6xHis; label: 5' Cy5; single strand"}, "[10]": {"target": "T1, HvRPA3 CTD-1", "test": "fluorescence anisotropy; any KCl condition; data not shown; FA: 50 mM HEPES pH 7.0, 10% glycerol, 0.03% BSA, 20 nM Cy5-oligo, 0.2, 1 or 3 M KCl, room temperature 10 min; SEC: 50 mM HEPES pH 7.0, 0.2, 1 or 3 M KCl; EMSA:", "details": "protein: recombinant; tags: N-terminal 6xHis; chain copies: 4; label: 5' Cy5; single strand"}, "[11]": {"target": "T2, HvRPA3 CTD-2", "test": "fluorescence anisotropy; any KCl condition; data not shown; FA: 50 mM HEPES pH 7.0, 10% glycerol, 0.03% BSA, 20 nM Cy5-oligo, 0.2, 1 or 3 M KCl, room temperature 10 min; SEC: 50 mM HEPES pH 7.0, 0.2, 1 or 3 M KCl; EMSA:", "details": "protein: recombinant; tags: N-terminal 6xHis; label: 5' Cy5; single strand"}}, "data": [{"binder": "GCGTGTGTGGTGGTGTGC (ssDNA)", "note": "[18mer ssDNA (SEC)]", "values": [{"measurement": "binding result", "setting": "[1]", "result": "no binding"}, {"measurement": "binding result", "setting": "[2]", "result": "no binding"}]}, {"binder": "HvRPA3 C-terminal domain (residues 164-311), second size exclusion peak (CTD-2) (domain or fragment, Haloferax volcanii, UniProt D4GZS1 164-311, looked up, Replication protein A3 (RPA3) of Haloferax volcanii, C-terminal domain residues 164-311, holds the zinc finger motif; Same construct as m3; the peak of lower apparent mass in the last purification step; Holds zinc (0.53 mol/mol); also called HvRPA3-CTD-2; source: E. coli B834 (DE3), purified (ammonium sulphate fractionation, Talon resin, Superdex 200; second of two peaks); not shown: 6xHis, …) EIEVGDDSTSVEGALVDSQSGSGLIKRCPEEGCTRVLQNGRCSEHGSVEGEFDLRIKAVVDDGDEVHEVIFNREMTEELTGIELDEAKQMAMDALDTTIVEEEMRGDLVGYYYRVTGPTLGRYVLANEVERLREPADAEELLIKARSM", "values": [{"measurement": "stoichiometry N", "setting": "[3]", "result": 2}, {"measurement": "stoichiometry N", "setting": "[4]", "result": 3}]}, {"binder": "HvRPA3 C-terminal domain (residues 164-311), first size exclusion peak (CTD-1) (domain or fragment, Haloferax volcanii, UniProt D4GZS1 164-311, looked up, Replication protein A3 (RPA3) of Haloferax volcanii, C-terminal domain residues 164-311, holds the zinc finger motif; Same construct as m4; the peak of higher apparent mass in the last purification step, concentrated apart; also called HvRPA3-CTD-1; source: E. coli B834 (DE3), purified (ammonium sulphate fractionation, Talon resin, Superdex 200; first of two peaks); not shown: 6xHis, N-terminal, …) EIEVGDDSTSVEGALVDSQSGSGLIKRCPEEGCTRVLQNGRCSEHGSVEGEFDLRIKAVVDDGDEVHEVIFNREMTEELTGIELDEAKQMAMDALDTTIVEEEMRGDLVGYYYRVTGPTLGRYVLANEVERLREPADAEELLIKARSM", "values": [{"measurement": "stoichiometry N", "setting": "[3]", "result": 4}, {"measurement": "stoichiometry N", "setting": "[4]", "result": 7}, {"measurement": "stoichiometry N", "setting": "[5]", "result": 5}]}, {"binder": "Replication protein A3 from Haloferax volcanii, full length (natural protein, UniProt D4GZS1 1-311, looked up, Replication protein A3 (RPA3) of Haloferax volcanii, amplified from genomic DNA of wild-type DS2; full length, residues 1-311 (the CTD construct ends at 311); Oligomeric state depends on the salt concentration; Tagged protein has a predicted MW of 35.4 x 10^3; also called HvRPA3; RPA3; source: E. coli B834 (DE3), purified (ammonium sulphate fractionation, Talon resin, Superdex 200); not shown: …) MTDLRTHAAEIADQFSDHLDVSADEVEERLESLVTEYRVPVDEARRSVVNSYLDEAGIERDELAGGSGGNEQTLLNDIDEDEQWVDVRAKVVELWEPRSESIAQVGLLGDDSGRMKFVSFTTSELPELEEGKSYALGNVVTDEYQGNFSVKLNRTTSITELDEEIEVGDDSTSVEGALVDSQSGSGLIKRCPEEGCTRVLQNGRCSEHGSVEGEFDLRIKAVVDDGDEVHEVIFNREMTEELTGIELDEAKQMAMDALDTTIVEEEMRGDLVGYYYRVTGPTLGRYVLANEVERLREPADAEELLIKARSM", "values": [{"measurement": "stoichiometry N", "setting": "[4]", "result": 4}, {"measurement": "stoichiometry N", "setting": "[5]", "result": 2}]}, {"binder": "HvRPA3 N-terminal domain (residues 1-163) (domain or fragment, Haloferax volcanii, UniProt D4GZS1 1-163, looked up, Replication protein A3 (RPA3) of Haloferax volcanii, N-terminal domain residues 1-163, holds the OB-fold; Tagged construct has a predicted MW of 18.9 x 10^3; also called NTD; HvRPA3-NTD; source: E. coli B834 (DE3), purified (ammonium sulphate fractionation, Talon resin, Superdex 200); not shown: 6xHis, N-terminal, kept) MTDLRTHAAEIADQFSDHLDVSADEVEERLESLVTEYRVPVDEARRSVVNSYLDEAGIERDELAGGSGGNEQTLLNDIDEDEQWVDVRAKVVELWEPRSESIAQVGLLGDDSGRMKFVSFTTSELPELEEGKSYALGNVVTDEYQGNFSVKLNRTTSITELDE", "values": [{"measurement": "stoichiometry N", "setting": "[6]", "result": 2}, {"measurement": "stoichiometry N", "setting": "[4]", "result": 3}]}, {"binder": "GCGTGTGTGGTGGTGTGC (ssDNA)", "note": "[Cy5-18mer ssDNA (FA)]", "values": [{"measurement": "Kd", "setting": "[7]", "result": "24.1 ± 2.9", "unit": "nM"}, {"measurement": "Kd", "setting": "[8]", "result": "53.9 ± 18.3", "unit": "nM"}, {"measurement": "Kd", "setting": "[9]", "result": "4.1 ± 7.9", "unit": "nM"}, {"measurement": "binding result", "setting": "[10]", "result": "no binding"}, {"measurement": "binding result", "setting": "[11]", "result": "no binding"}]}]}
